Publication PMC3759449

Experiments:
[1] = biological target: NrCAM, rat (pcDNA3 plasmid) (rat) (UniProt P97686)
[2] = biological target: NrCAM, rat, tyrosine-phosphorylated in the FIGQY motif by co-expressed EphB2 (rat) (UniProt P97686)

Substance: ankyrinG-EGFP fusion protein (from UniProt O70511 1-2622) (natural protein)
- percent of cells with ankyrinG-EGFP recruited to the plasma membrane, HEK293 cells co-expressing ankyrin/NrCAM/EphB2 KD (kinase dead mutant K662R) [1]: 84%
- percent of cells with ankyrinG-EGFP recruited to the plasma membrane, HEK293 cells co-expressing ankyrin/NrCAM/EphB2 [2]: 7%
